This note sets out measurements from publication PMC8420576.

The target of the assay is SARS-CoV-2 Spike RBD (residues 334–527), C-terminal Avi-His6 tag, biotinylated (SARS-CoV-2) (UniProt P0DTC2). The assay can be described thus: BLI. On the technique in general: Biolayer interferometry detects binding as a change in optical thickness at a sensor tip.

What is called Kd is the equilibrium constant for the complex coming apart. As usually defined, the koff is a measure of how fast the partners let go of each other. Read a high koff as fast dissociation. The substance VHH72 gave a dissociation constant Kd of 0.027 µM and a koff of 0.0036 s⁻¹.
